One series deals with MCF7. As to the kind of experiment: β-galactosidase gene transfection across different cell lines. The series is classed as cell-based.
Series [1] in a line: Curcumin binding/loading to protein.
Series [2] in a line: Doxorubicin binding/loading to protein.
A further series has as its system MC3T3-E1 cells. As to the kind of experiment: Cell viability by MTT assay. The series is classed as cell-based, mouse. The protocol: Cell viability studies. The cells were seeded in 96-well plate at a density of […] in αMEM with 10% FBS and incubated at 37° C. with 5% CO2 overnight. The cytotoxicity of different complexes was evaluated by 3-(4,5-dimethylthiazol-2-yl)-2,5-diphenyl […] bromide, MTT assay. Approximately 10 μL of MTT reagent from 5 mg/mL stock was added to each well and incubated for 4 hours at 37° C. with 5% CO2. After incubation, the entire medium was aspirated and 100 μL of dimethyl sulfoxide was added to each well. The change in absorbance of colored solution was observed using a microplate reader Synergy HT at 570 nm. The percent cell viability was calculated by normalizing the observed absorbance value to that of the control cells without any treatment. The data was represented as the average of quadruplicates±standard deviation.
(In general: Formazan colour is commonly taken as a measure of viable cells.)

Series [3] can be described thus: CD spectroscopy temperature scan (melting temperature). Type of series: physicochemical. The note with it: CD at 222 nm. The protocol: CD spectroscopy. The secondary structure of CSP/COMPcc was analyzed using a Jasco J-815 spectrometer at 10 μM protein concentration in 50 mM Tris-HCl buffer pH 8.0. The wavelength scans were performed at 4° C. over a range of 200-250 nm with a 1 nm step size. Temperature scans were performed at 222 nm from 20° C. to 85° C. with temperature ramp of 1° C./min The observed ellipticity value (Θ) was converted into mean residue ellipticity (MRE) using the standard equation ΘMRE=Θ/(10 cpl) where c is the molar concentration of the protein, p is the path length in centimeters and l is the number of amino acids. The fraction folded was derived using equation F=(ΘA−ΘU)/(ΘN−ΘU), where, ΘA is the MRE observed at given temperature, ΘU is MRE value for completely unfolded protein and ΘN is the MRE value of completely folded protein that is considered at 25° C. The first derivative of fraction folded was used to calculate melting temperature (Tm) of protein. All data were represented as an average of three trials.

Series [4] concerns β-galactosidase plasmid DNA. Nature of the series: Electrophoretic mobility shift assay (gel retardation) of protein binding to plasmid DNA. Conditions: protein to DNA w/w ratio 18:1.
Experimental: The β-galactosidase plasmid DNA (5.1 kb) at a concentration of 50 ng was mixed with different concentrations of CSP and COMPcc and incubated at room temperature for 30 minutes. The mixtures were run on 1% agarose gel (stained with ethidium bromide) and imaged under UV light using ImageQuant (GE healthcare).

B1: CSP: engineered supercharged coiled-coil protein, SEQ ID NO:1; COMPcc with eight solvent-exposed residues mutated to arginine (protein)
chain: MRGSHHHHHHGSGRLRPQMLRELQRTNAALRDVRELLRQQVKEITRLKNTVRRSRASGKLN
modifications: supercharged coiled-coil protein
notes: COMPcc with eight solvent-exposed residues mutated to arginine
With B1, in the series on MCF7, the “β-galactosidase gene transfection (in words)” value was “drastic increase in transfection”. The curcumin loading in series [1] is recorded as 63%. Also, the doxorubicin loading in series [2] is 31%. For the same molecule, the “cytotoxicity (in words)” value with MC3T3-E1 cells is “not cytotoxic”. For the same molecule, the “decrease in the melting temperature (Tm) in comparison to the parent COMPcc” value in series [3] came to 10 °C.

B2: COMPcc: cartilage oligomeric matrix protein coiled-coil, parent protein, SEQ ID NO:2 (protein)
chain: MRGSHHHHHHGSGDLAPQMLRELQETNAALQDVRELLRQQVKEITFLKNTVMESDASGKLN
modifications: supercharged coiled-coil protein
B2: the “DNA shift at higher protein to DNA ratio” value in series [4] is listed as “negligible DNA shift”. Besides, the curcumin loading in series [1] is 64%. Also, the doxorubicin loading in series [2] came out at 26%.

The record behind these values is patent US9453060B2, “Protein engineered systems for delivery of molecules” (New York University, priority 2013, dated 2016).
